From patent US12305172
Like-named read-outs stand apart in the source and are kept apart here.

Legend:
thrombin = thrombin (UniProt P00734+P00734); conditions: CD titration at 295 nm, water, no added cations
thrombin (Bos taurus) = thrombin (Bos taurus) (UniProt P00735+P00735); assay: inhibition; conditions: clotting time

GGTTGGTGTGGTTGG [TBA]
Kd (thrombin; n = 1): 0.38 µM

GGTTGGTGTGGTTGG [isoTBA]
activity (thrombin (Bos taurus); 2'-5'-linked isoDNA analogue of TBA [1-15 (all 2'-5'-linked isoDNA)], stated for comparison with TBA and iso-rTBA): 73.4 s

GGUUGGUGUGGUUGG [iso-rTBA]
activity (thrombin (Bos taurus); all 2'-5'-linked RNA (3'-OH), SEQ ID NO:1, 0.25 uM oligomer, 0.1 NIH U thrombin, 3.5 uM human fibrinogen, 37 °C): 70.9 s
Kd (thrombin; all 2'-5'-linked RNA (3'-OH), SEQ ID NO:1, n = 4 thrombin per oligomer): 3.4 µM
